B1: PPFIA4 (parent)
chain: PGVHRRYSALREESAKDWETSPLP

Variants of: B1
Assay: protein stability index of a GFP-peptide fusion (GPS, HEK-293T) (PSI 1-6); higher = more stable
Settings: c terminus: a fixed tail appended
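Note: lentivirally expressed fusions sorted by FACS into six bins by GFP to DsRed ratio, PSI derived from sequencing read proportions per bin multiplied by bin number.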

Protein stability index: each site, then its substitutions
H4: V 3.8, W 3.15, R 3.42, I 4.14
R5: A 4.86, H 4.27, V 3.67, L 3.99, P 4.54, C 2.68, T 3.91, G 3.96, W 3.81, D 5.06
E19: S 3.17, V 3.24, C 3, T 3.96, I 3.41, W 2.41, L 3.97, N 3.42
L10: K 4.69, C 2.28, N 4.79, T 4.97, I 4.15, W 4.31, P 4.97, M 4.31
T20: F 2.71, L 3.36, S 4.83, A 4.05, W 2.3, D 5.09, E 4.62, G 4.55, K 4.17
R11: D 4.82, S 4.55, C 4.37, E 5.29, F 3.59, T 4.88, K 4.36, P 4.19
S8: Y 3.79, L 3.54, C 3.16, I 3.62, Q 4.86, D 4.97
L23: Y 3.87, I 4.26, Q 4.37, V 2.13, D 4.55, N 5
K16: H 4.17, F 3.17, I 3.96, R 3.99, S 4.13
D17: S 4.16, C 3.53, N 3.98
W18: G 5.21, L 4.96, F 4.4, Y 4.73, A 4.95
P24: Q 3.45, G 4.25, C 4.22, H 3.19, I 3.87, F 3.59, E 4.71, D 4.59, S 3.83, L 3.62, Y 3.45
P1: Y 4.17, C 2.65, Q 4.18, L 3.11, T 4.16, D 3.93, I 4.16, G 4.03
Y7: F 4.13, R 4.6, L 4.18, S 4.58, C 3.87, D 4.38, A 4.8
P22: A 4.11, R 3.18, I 3.48, E 4.94, C 4.02, Q 4.63, Y 3.3
S14: D 4.92, V 3.92, F 3.63, K 5, I 4.05
E12: W 3.11, I 3.21, N 4.23, L 3.45, M 3.56, G 4.62, P 3.88, F 3.02
A9: F 2.91, P 2.93, H 3.92, Y 3.4, S 4.22, E 3.92, N 4.4, W 3.58, L 4.27, T 4.19
E13: S 3.96, Q 4.04, K 3.69, W 2.64, I 3.45, V 4.06, F 3.8, G 3.93, C 2.38, A 3.75, T 3.51
S21: A 4.93, Y 3.2, H 3.42
V3: M 5.03, C 4.08, P 4.6, G 4.84, E 4.33, D 4.89, Q 4.42
R6: A 4.49, H 3.65, F 3.74, M 3.82, L 3.04
A15: H 4.39, M 2.77, Y 3.32, W 3.86, C 3.63, T 4.63, V 3.89
G2: W 4.36, A 3.85, S 4.28, K 3.98, Y 4.08, I 4.51

— the supplement of paper PMC10567573
